Common to all, as to assay: micro-array, phage-presented peptide on printed CK
Assay [1] addresses T1, GRO-β (CXCL2) (UniProt P19875 35-107).
T1 construct: Bought chemokine
T1 sequence (looked up): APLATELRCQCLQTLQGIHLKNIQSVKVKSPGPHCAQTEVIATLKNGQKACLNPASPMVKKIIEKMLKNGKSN
The procedure: (§1) (1) Printing: Chemokine (CK) solution (in water) was serially diluted with Print Reagent (GenTel BioSurfaces USA) to final concentrations of 50 μg and 25 μg/ml. BSA/BSA-Biotin control solutions (in water) were diluted with Print Reagent to 100 μg/ml. Amplified stock of M13 phage control (M13KEgIII Cloning Vector, New England Biolabs, Cat.No.E8101S) was stored in Tris Buffered Saline (TBS; pH7.5, 4° C.) and diluted with Print Reagent to the working titre (10^8 pfu/μl). An automated spotting robot (16 pin print tool, 0.4mm head; BioRobotics, UK) was used to print the CK/BSA control/M13 control, 5 repeats per sample (CK 25 μg/ml and 50 μg/ml; BSA 100 μg/ml; M13 20 μl), on PATH Protein Microarray Slides (GenTel, Prod.No.2-1005/-1025) at […], and 50-70% relative humidity. Printed micro-array slides were stored at Room Temperature (RT) or 4° C. for at least 24 h before use.
(§2) (2) Blocking: Block Buffer (500 μl/partition; PATHblock, GenTel, Prod.No.2-1014) was applied to the slide for 1 hour at room temp (RT). After removal of Block Buffer, the slide was air dried for 25 minutes;
(§3) (11) Analysis: Quantitative analysis of micro-array was performed by the SpotReader program of Niles Scientific (USA) and presented as Relative Fluorescence (RF) as a function of CK concentration. Micro-array readout (Cy3 fluorescence) was quantified to determine the relative binding affinities of a CBP for the CKs and by inference, the specificity of the CBP for binding to a CK.

Assay [2] concerns the target T2, Mig (CXCL9) (UniProt Q07325 23-125).
T2 construct: Bought chemokine
T2 sequence (looked up): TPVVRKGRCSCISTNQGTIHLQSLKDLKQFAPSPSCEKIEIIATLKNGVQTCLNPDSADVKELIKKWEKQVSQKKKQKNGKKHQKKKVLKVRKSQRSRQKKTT
The procedure:
as §1, §2, §3

The target in assay [3] is T3, I-TAC (CXCL11) (UniProt O14625 22-94).
T3 construct: Bought chemokine; also called I-TACK
T3 sequence (looked up): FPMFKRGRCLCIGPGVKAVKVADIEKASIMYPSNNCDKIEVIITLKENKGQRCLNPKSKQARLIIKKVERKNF
The procedure: as §1, §2, §3

Assay [4] has as its target T4, I-309 (CCL1) (UniProt P22362 23-96, limits assumed).
T4 construct: Bought chemokine
T4 sequence (looked up): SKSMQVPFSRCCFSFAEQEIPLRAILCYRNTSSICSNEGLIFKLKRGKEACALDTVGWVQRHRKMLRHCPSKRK
The procedure:
as §1, §2, §3

For assay [5], the target named is T5, MCP-1 (CCL2) (UniProt P13500 24-99).
T5 construct: Bought chemokine
The procedure: as §1, §2, §3

In assay [6] the target is T6, MCP-2 (CCL8) (UniProt P80075 24-99).
T6 construct: Bought chemokine
T6 sequence (looked up): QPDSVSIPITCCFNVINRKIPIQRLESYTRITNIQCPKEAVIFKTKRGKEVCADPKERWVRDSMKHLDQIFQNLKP
Here is the method:
as §1, §2, §3

Assay [7] has as its target T7, MCP-4 (CCL13) (UniProt Q99616 24-98).
T7 construct: Bought chemokine
The procedure:
as §1, §2, §3

The target of assay [8] is T8, RANTES (CCL5) (UniProt P13501 24-91).
T8 construct: Bought chemokine
T8 sequence (looked up): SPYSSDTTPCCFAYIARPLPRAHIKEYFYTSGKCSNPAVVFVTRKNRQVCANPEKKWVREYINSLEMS
The procedure:
as §1, §2, §3

For assay [9], the target named is T9, Eotaxin (CCL11) (UniProt P51671 24-97).
T9 construct: Bought chemokine
The procedure: as §1, §2, §3

Assay [10] has as its target T10, Eotaxin 2 (CCL24) (UniProt O00175 27-104, limits assumed).
T10 construct: Bought chemokine
T10 sequence (looked up): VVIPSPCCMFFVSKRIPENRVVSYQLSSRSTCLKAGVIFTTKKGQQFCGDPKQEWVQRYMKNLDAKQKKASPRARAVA
Here is the method: as §1, §2, §3

In assay [11] the target is T11, Eotaxin 3 (CCL26) (UniProt Q9Y258 24-94).
T11 construct: Bought chemokine
T11 sequence (looked up): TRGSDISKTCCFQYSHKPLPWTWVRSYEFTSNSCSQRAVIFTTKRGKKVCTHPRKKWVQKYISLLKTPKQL
The procedure: as §1, §2, §3

For assay [12], the target named is T12, MDC(69aa) (CCL22) (UniProt O00626 25-93).
T12 construct: Bought chemokine
T12 sequence (looked up): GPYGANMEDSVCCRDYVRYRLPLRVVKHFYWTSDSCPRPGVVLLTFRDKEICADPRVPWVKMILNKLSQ
Here is the method: as §1, §2, §3

Assay [13] has as its target T13, BCA-1 (CXCL13) (UniProt O43927 23-109).
T13 construct: Bought chemokine
T13 sequence (looked up): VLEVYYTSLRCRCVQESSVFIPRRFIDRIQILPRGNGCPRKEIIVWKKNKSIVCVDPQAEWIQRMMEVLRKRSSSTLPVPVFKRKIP
The procedure: as §1, §2, §3

The target in assay [14] is T14, TECK (CCL25) (UniProt O15444 24-150).
T14 construct: Bought chemokine
T14 sequence (looked up): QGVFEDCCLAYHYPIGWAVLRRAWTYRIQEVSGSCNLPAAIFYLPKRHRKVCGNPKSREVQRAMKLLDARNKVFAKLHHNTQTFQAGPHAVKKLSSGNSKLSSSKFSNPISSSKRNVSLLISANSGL
Here is the method:
as §1, §2, §3

Assay [15] addresses T15, Lymphotactin (XCL-1) (UniProt P47992 23-114, limits assumed).
T15 construct: Bought chemokine
T15 sequence (looked up): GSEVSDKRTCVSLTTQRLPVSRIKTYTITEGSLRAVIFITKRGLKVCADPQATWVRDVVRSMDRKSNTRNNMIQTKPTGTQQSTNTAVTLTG
The procedure: as §1, §2, §3

For assay [16], the target named is T16, IP-10 (CXCL10) (UniProt P02778 22-98).
T16 construct: Bought chemokine
T16 sequence (looked up): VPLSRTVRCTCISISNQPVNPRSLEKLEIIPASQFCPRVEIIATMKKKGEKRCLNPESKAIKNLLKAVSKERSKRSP
The procedure: as §1, §2, §3

Assay [17] addresses T17, SDF-1α (CXCL12) (UniProt P48061-2 22-89).
T17 construct: Alpha isoform of CXCL12; also called SDFα
Here is the method:
as §1, §2, §3

Assay [18] concerns the target T18, SDF-1β (CXCL12) (UniProt P48061 22-93).
T18 construct: Beta isoform of CXCL12; also called SDFβ
Here is the method:
as §1, §2, §3

The target in assay [19] is T19, Exodus-2 (CCL21) (UniProt O00585 24-134).
T19 construct: Bought chemokine
T19 sequence (looked up): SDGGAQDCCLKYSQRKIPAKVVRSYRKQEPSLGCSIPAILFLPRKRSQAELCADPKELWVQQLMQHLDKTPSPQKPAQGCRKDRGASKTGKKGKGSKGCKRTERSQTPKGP
Here is the method:
as §1, §2, §3

Assay [20] deals with T20, CTAC (CCL27) (UniProt Q9Y4X3 25-112).
T20 construct: Bought chemokine
T20 sequence (looked up): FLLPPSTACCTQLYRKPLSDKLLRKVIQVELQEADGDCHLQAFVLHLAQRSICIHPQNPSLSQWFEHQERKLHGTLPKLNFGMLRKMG
The procedure:
as §1, §2, §3

In assay [21] the target is T21, IL-8 (CXCL8) (UniProt P10145 28-99, limits assumed).
T21 construct: also called IL-8(72aa); IL-8(77aa)
T21 sequence (looked up): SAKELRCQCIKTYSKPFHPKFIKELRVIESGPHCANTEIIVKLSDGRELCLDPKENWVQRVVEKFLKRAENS
Here is the method:
as §1, §2, §3

The values that follow come from patent US20100227824A1 (SYMTHERA CANADA, published 2010).

T7 sequence (Q99616 24-98 limits assumed): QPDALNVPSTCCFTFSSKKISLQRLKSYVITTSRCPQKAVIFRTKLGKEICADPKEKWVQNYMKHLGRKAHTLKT
T17 sequence (P48061 22-89 limits assumed): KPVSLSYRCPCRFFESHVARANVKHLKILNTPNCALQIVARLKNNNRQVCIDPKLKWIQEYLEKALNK
T5 sequence (P13500 24-99 limits assumed): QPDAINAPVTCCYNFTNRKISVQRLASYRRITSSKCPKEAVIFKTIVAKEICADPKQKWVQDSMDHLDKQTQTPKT
T9 sequence (P51671 24-97 limits assumed): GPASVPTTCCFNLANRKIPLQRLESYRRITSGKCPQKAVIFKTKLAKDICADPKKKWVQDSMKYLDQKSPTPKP
T18 sequence (P48061 22-93 limits assumed): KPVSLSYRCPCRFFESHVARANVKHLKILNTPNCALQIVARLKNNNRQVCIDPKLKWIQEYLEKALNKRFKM

B1: Phage-Presented Peptide 16 (Ph-p16) (peptide)
peptide: HHTCSLHFP
As to B1, the binding result in assay [1], in assay [2], in assay [3], in [4], in assay [5] and in [6] was “binds” in each case. Also, the binding result in [9], in assay [10], in assay [11], in assay [12], in assay [13] and in assay [14] was “binds” each time. For the same molecule, in [15], the binding result is “binds”. Further, the “Relative Fluorescence Units (RFU)” value in assay [7] and in assay [8] was > 15000 RFU each time.

B2: Phage-Presented Peptide 8.11 (Ph-p8.11) (peptide)
peptide: NAMCK
Turning to B2, the “Relative Fluorescence Units (RFU)” value in assay [16], in [3] and in assay [11] was > 10000 RFU in each case. Further, the binding result in [17], in assay [18], in assay [13], in [19], in assay [14] and in [20] was “binds” each time.

B3: Phage-Presented Peptide 30 (Ph-p30) (peptide)
peptide: DYDYGAPC
As for B3, the “Relative Fluorescence Units (RFU)” value in [21], in [2], in assay [3], in [4], in assay [5] and in [6] was > 15000 RFU each time. The “Relative Fluorescence Units (RFU)” value in assay [7], in [8], in assay [9], in assay [10] and in assay [11] was > 15000 RFU each time. Moreover, the binding result in assay [12], in assay [17], in assay [18], in assay [13], in assay [19] and in assay [14] was “binds” in each case. For the same molecule, the binding result in assay [20] and in assay [15] was “binds” each time.
